Source: patent CN113667016A (PUMISI BIOTECHNOLOGY ZHUHAI CO LTD, dated 2021)

Target: S1-His (SARS-CoV-2, UniProt P0DTC2 16-685)

B1: 89C8 (antibody, V domains shown)
VH: QVQLVQSGAEVKKPGSSVKVSCKASGGTFSSYAISWVRQAPGQGLEWMGGIIPILGIANYAQKFQGRVTITADKSTSTAYMELSSLRSEDTAVYYCARGGLGFGELFRKTGYYFDYWGQGTLVTVSS
VL: EIVMTQSPATLSVSPGERATLSCRASQSVSSNLAWYQQKPGQAPRLLIYAASTRATAIPARFSGSGSGTEFTLTISSLQSEDFAVYFCQQYNKLPLTFGGGTKVDIKR
Kd: 7.6 nM
koff: 0.000385 s⁻¹
kon: 50400 M⁻¹ s⁻¹
